Reference: the supplement of paper PMC9112550, “Optimization of the antimicrobial peptide Bac7 by deep mutational scanning” (BMC Biology, 2022)

System: Escherichia coli TOP10
Assay: shrunken log2 fold change of peptide-encoding DNA abundance (4.5 h post-induction vs induction); higher = less antimicrobial activity (less host growth inhibition)
Conditions: time post-induction: 4.5 h; library: site-saturation at positions 5, 18, 19, 20
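Also: peptides expressed intracellularly from a pBAD plasmid library in pooled LB shake-flask culture, induced with 0.3% L-arabinose, DNA abundance read by NGS, three biological replicates, DESeq2 with apeglm shrinkage.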

Row | Sequence | shrunken log2 fold change
1 | RRIRIRPPRLPRPRPRPYYFPRP | -1.16
2 | RRIRKRPPRLPRPRPRPAAWPRP | 0.443
3 | RRIRKRPPRLPRPRPRPACQPRP | 0.0289
4 | RRIRKRPPRLPRPRPRPACWPRP | 0.96
5 | RRIRKRPPRLPRPRPRPAETPRP | 0.336
6 | RRIRKRPPRLPRPRPRPAGDPRP | 0.646
7 | RRIRKRPPRLPRPRPRPAGLPRP | 0.126
8 | RRIRKRPPRLPRPRPRPAGPPRP | 0.368
9 | RRIRKRPPRLPRPRPRPAHFPRP | 0.232
10 | RRIRKRPPRLPRPRPRPAHVPRP | 0.03
11 | RRIRKRPPRLPRPRPRPAKGPRP | 0.136
12 | RRIRKRPPRLPRPRPRPAKVPRP | 0.0797
13 | RRIRKRPPRLPRPRPRPAMYPRP | 0.256
14 | RRIRKRPPRLPRPRPRPAPIPRP | 0.716
15 | RRIRKRPPRLPRPRPRPAQKPRP | -0.0358
16 | RRIRKRPPRLPRPRPRPAQYPRP | -0.141
17 | RRIRKRPPRLPRPRPRPARFPRP | 0.396
18 | RRIRKRPPRLPRPRPRPARIPRP | 0.0491
19 | RRIRKRPPRLPRPRPRPARKPRP | -0.0215
20 | RRIRKRPPRLPRPRPRPARYPRP | 0.513
21 | RRIRKRPPRLPRPRPRPASFPRP | 0.559
22 | RRIRKRPPRLPRPRPRPASGPRP | 0.591
23 | RRIRKRPPRLPRPRPRPATNPRP | 0.712
24 | RRIRKRPPRLPRPRPRPAVDPRP | -0.0502
25 | RRIRKRPPRLPRPRPRPAYAPRP | -0.085

Row | Sequence | shrunken log2 fold change
26 | RRIRKRPPRLPRPRPRPAYDPRP | -0.116
27 | RRIRKRPPRLPRPRPRPCAKPRP | 0.54
28 | RRIRKRPPRLPRPRPRPCAQPRP | 0.208
29 | RRIRKRPPRLPRPRPRPCCAPRP | 1.3
30 | RRIRKRPPRLPRPRPRPCCDPRP | 0.217
31 | RRIRKRPPRLPRPRPRPCCGPRP | 0.281
32 | RRIRKRPPRLPRPRPRPCCIPRP | 0.243
33 | RRIRKRPPRLPRPRPRPCDDPRP | -0.0472
34 | RRIRKRPPRLPRPRPRPCEEPRP | 0.56
35 | RRIRKRPPRLPRPRPRPCEVPRP | 0.0441
36 | RRIRKRPPRLPRPRPRPCFEPRP | 0.336
37 | RRIRKRPPRLPRPRPRPCGGPRP | 0.225
38 | RRIRKRPPRLPRPRPRPCHNPRP | -0.111
39 | RRIRKRPPRLPRPRPRPCHSPRP | -0.0177
40 | RRIRKRPPRLPRPRPRPCHWPRP | 0.139
41 | RRIRKRPPRLPRPRPRPCINPRP | -0.162
42 | RRIRKRPPRLPRPRPRPCKAPRP | 0.0525
43 | RRIRKRPPRLPRPRPRPCLKPRP | -0.0379
44 | RRIRKRPPRLPRPRPRPCMGPRP | 0.045
45 | RRIRKRPPRLPRPRPRPCPDPRP | -0.0203
46 | RRIRKRPPRLPRPRPRPCQEPRP | -0.0342
47 | RRIRKRPPRLPRPRPRPCQMPRP | -0.0362
48 | RRIRKRPPRLPRPRPRPCRQPRP | -0.166
49 | RRIRKRPPRLPRPRPRPCSNPRP | -0.0227
50 | RRIRKRPPRLPRPRPRPCTCPRP | 0.00906

Row | Sequence | shrunken log2 fold change
51 | RRIRKRPPRLPRPRPRPCTEPRP | 0.0485
52 | RRIRKRPPRLPRPRPRPCTHPRP | -0.14
53 | RRIRKRPPRLPRPRPRPCWQPRP | 0.154
54 | RRIRKRPPRLPRPRPRPCWWPRP | 0.284
55 | RRIRKRPPRLPRPRPRPCYAPRP | 0.083
56 | RRIRKRPPRLPRPRPRPDCTPRP | 1.22
57 | RRIRKRPPRLPRPRPRPDDFPRP | -0.00262
58 | RRIRKRPPRLPRPRPRPDDHPRP | 0.0199
59 | RRIRKRPPRLPRPRPRPDDYPRP | 0.276
60 | RRIRKRPPRLPRPRPRPDFAPRP | -0.033
61 | RRIRKRPPRLPRPRPRPDFPPRP | 0.416
62 | RRIRKRPPRLPRPRPRPDGFPRP | 0.0522
63 | RRIRKRPPRLPRPRPRPDHYPRP | -0.0322
64 | RRIRKRPPRLPRPRPRPDIVPRP | 1.54
65 | RRIRKRPPRLPRPRPRPDIYPRP | 0.152
66 | RRIRKRPPRLPRPRPRPDKNPRP | 0.159
67 | RRIRKRPPRLPRPRPRPDLCPRP | 0.741
68 | RRIRKRPPRLPRPRPRPDNGPRP | -0.0558
69 | RRIRKRPPRLPRPRPRPDNLPRP | -0.0561
70 | RRIRKRPPRLPRPRPRPDPDPRP | 0.431
71 | RRIRKRPPRLPRPRPRPDPPPRP | 0.927
72 | RRIRKRPPRLPRPRPRPDQIPRP | -0.0414
73 | RRIRKRPPRLPRPRPRPDQPPRP | -0.018
74 | RRIRKRPPRLPRPRPRPDQYPRP | 0.0833
75 | RRIRKRPPRLPRPRPRPDSAPRP | 0.115

Row | Sequence | shrunken log2 fold change
76 | RRIRKRPPRLPRPRPRPDSLPRP | 0.00855
77 | RRIRKRPPRLPRPRPRPDSPPRP | -0.0585
78 | RRIRKRPPRLPRPRPRPDTSPRP | 0.0236
79 | RRIRKRPPRLPRPRPRPDTYPRP | -0.0205
80 | RRIRKRPPRLPRPRPRPDWFPRP | 0.178
81 | RRIRKRPPRLPRPRPRPDWVPRP | 0.0285
82 | RRIRKRPPRLPRPRPRPDYCPRP | 0.0953
83 | RRIRKRPPRLPRPRPRPEAFPRP | 0.434
84 | RRIRKRPPRLPRPRPRPEAGPRP | 1.17
85 | RRIRKRPPRLPRPRPRPEDAPRP | 0.054
86 | RRIRKRPPRLPRPRPRPEENPRP | -0.00213
87 | RRIRKRPPRLPRPRPRPEFIPRP | 0.146
88 | RRIRKRPPRLPRPRPRPEHKPRP | 0.295
89 | RRIRKRPPRLPRPRPRPEIYPRP | -0.00723
90 | RRIRKRPPRLPRPRPRPEKLPRP | 0.103
91 | RRIRKRPPRLPRPRPRPEKPPRP | 0.0899
92 | RRIRKRPPRLPRPRPRPELRPRP | 1.12
93 | RRIRKRPPRLPRPRPRPEMWPRP | 0.719
94 | RRIRKRPPRLPRPRPRPEPPPRP | 2.92
95 | RRIRKRPPRLPRPRPRPEQDPRP | 0.0646
96 | RRIRKRPPRLPRPRPRPEQIPRP | 0.0375
97 | RRIRKRPPRLPRPRPRPEQMPRP | -0.000598
98 | RRIRKRPPRLPRPRPRPERLPRP | 0.209
99 | RRIRKRPPRLPRPRPRPERPPRP | 0.407
100 | RRIRKRPPRLPRPRPRPERQPRP | 0.0351

Row | Sequence | shrunken log2 fold change
101 | RRIRKRPPRLPRPRPRPERWPRP | 1.15
102 | RRIRKRPPRLPRPRPRPESCPRP | 0.183
103 | RRIRKRPPRLPRPRPRPESLPRP | -0.024
104 | RRIRKRPPRLPRPRPRPESQPRP | 0.967
105 | RRIRKRPPRLPRPRPRPEVIPRP | -0.00256
106 | RRIRKRPPRLPRPRPRPEWHPRP | 0.125
107 | RRIRKRPPRLPRPRPRPEWKPRP | 0.0315
108 | RRIRKRPPRLPRPRPRPFAQPRP | 0.177
109 | RRIRKRPPRLPRPRPRPFCIPRP | 0.0646
110 | RRIRKRPPRLPRPRPRPFDVPRP | 0.0305
111 | RRIRKRPPRLPRPRPRPFEMPRP | 0.911
112 | RRIRKRPPRLPRPRPRPFFKPRP | 0.0178
113 | RRIRKRPPRLPRPRPRPFGLPRP | -0.0305
114 | RRIRKRPPRLPRPRPRPFHQPRP | -0.0483
115 | RRIRKRPPRLPRPRPRPFIFPRP | 0.085
116 | RRIRKRPPRLPRPRPRPFIPPRP | -0.543
117 | RRIRKRPPRLPRPRPRPFITPRP | -0.352
118 | RRIRKRPPRLPRPRPRPFKMPRP | -0.231
119 | RRIRKRPPRLPRPRPRPFLKPRP | 0.0443
120 | RRIRKRPPRLPRPRPRPFMDPRP | 0.0834
121 | RRIRKRPPRLPRPRPRPFNKPRP | -0.0789
122 | RRIRKRPPRLPRPRPRPFSIPRP | -0.0639
123 | RRIRKRPPRLPRPRPRPFTIPRP | 0.0665
124 | RRIRKRPPRLPRPRPRPFTSPRP | 0.093
125 | RRIRKRPPRLPRPRPRPFTWPRP | 1.37

Row | Sequence | shrunken log2 fold change
126 | RRIRKRPPRLPRPRPRPGAVPRP | 0.749
127 | RRIRKRPPRLPRPRPRPGCMPRP | 0.993
128 | RRIRKRPPRLPRPRPRPGCVPRP | 1.16
129 | RRIRKRPPRLPRPRPRPGDSPRP | 0.163
130 | RRIRKRPPRLPRPRPRPGEWPRP | -0.0202
131 | RRIRKRPPRLPRPRPRPGFCPRP | 0.243
132 | RRIRKRPPRLPRPRPRPGFYPRP | 0.00129
133 | RRIRKRPPRLPRPRPRPGGIPRP | 0.569
134 | RRIRKRPPRLPRPRPRPGGKPRP | 0.123
135 | RRIRKRPPRLPRPRPRPGIAPRP | 1.46
136 | RRIRKRPPRLPRPRPRPGIEPRP | 1.34
137 | RRIRKRPPRLPRPRPRPGIGPRP | 0.39
138 | RRIRKRPPRLPRPRPRPGKPPRP | 0.115
139 | RRIRKRPPRLPRPRPRPGKRPRP | 0.285
140 | RRIRKRPPRLPRPRPRPGMGPRP | 0.606
141 | RRIRKRPPRLPRPRPRPGMSPRP | 0.361
142 | RRIRKRPPRLPRPRPRPGNNPRP | -0.107
143 | RRIRKRPPRLPRPRPRPGNRPRP | 0.143
144 | RRIRKRPPRLPRPRPRPGPDPRP | 0.608
145 | RRIRKRPPRLPRPRPRPGPHPRP | 0.803
146 | RRIRKRPPRLPRPRPRPGPTPRP | 0.65
147 | RRIRKRPPRLPRPRPRPGQAPRP | 0.383
148 | RRIRKRPPRLPRPRPRPGSTPRP | 0.131
149 | RRIRKRPPRLPRPRPRPGSVPRP | 0.162
150 | RRIRKRPPRLPRPRPRPGTSPRP | 0.0376
